According to patent US20230331868A1 (Seagen, published 2023):

B1: Humanized 2G12-2B2 VL2,VH2 (antibody, V domains shown)
VH: QVQLVQSGAEVKKPGASVKISCKASGYTFTDHAIHWVRQAPGQGLEWIGYFSPGNDDIKYNEKFRGRVTLTADKSSSTAYMELRSLRSDDTAVYFCKRSLSTPYWGQGTLVTVSS
VL: DIVMTQSPDSLAVSLGERVTMSCKSSQSLLNRGNHKNYLTWYQQKPGQPPKLLIYWASTRESGVPDRFSGSGSGTDFTLTISSLQAEDVAVYYCQNDYTYPYTFGQGTKVEIK
notes: also called Hu2G12-2B2,L2H2; Hu2G12-2B2 L2H2
B2: Humanized 3F1 VL1,VH1 (antibody, V domains shown)
VH: QVQLVQSGAEVKKPGASVKVSCKASGYTFTDHAIHWVRQAPGQGLEWMGYISPGNGDIKYNEKFKDRVTMTADKSSSTAYMQLRSLRSDDTAVYFCKRSLLALDYWGQGTLVTVSS
VL: DIQMTQSPSSLSASVGDRVTITCKASQDVGTNIAWYQQKPGKAPKVLIYSASTRHTGVPSRFSGSGSGTDFTLTISSLQPEDFATYFCQQYSSFPLTFGQGTKVEIK
notes: also called Hu3F1,L1H1; Hu3F1 L1H1

Experiments:
[1] = target: T1, bovine submaxillary mucin (bovine); test: ELISA on BSM-coated wells; periodate-sensitive signal
T1 construct: Natural mucin preparation; also called BSM
Procedure: (§1) For BSM ELISA analysis, antibodies were screened over a concentration range of 0 to 100 nM on bovine submaxillary mucin (BSM) coated wells. A subset of wells were treated with mild periodate solution before antibody binding to remove the side chain on terminal sialic acid residues (destroying the STn antigen). Optical densities of periodate and non-periodate-treated wells were determined and log transformed then fit to a nonlinear regression model to obtain a dose response curve. Optical density values obtained from periodate-treated wells were subtracted from non-periodate treated wells to obtain a periodate-sensitive STn binding curve and corresponding EC₅₀ values.

[2] = target: T1, bovine submaxillary mucin; test: ELISA on BSM-coated wells; antibody from one liter production
Procedure: as §1
Based on the results of characterization experiments, two antibodies from each clone group were selected for one liter expression and resulting antibodies were tested again according to the same procedures (see results presented in the following Table).

Row | Binder | EC50 [1] [nM] | EC50 [2] [nM]
1 | B1 | 2.9 | 1.82
2 | B2 | 1.8 | 0.86
